Tests used:
[1] = target: FLAG-RSPO1furin-CD4TM-GFP (human) (UniProt Q2MKA7); experiment: FACS on HEK-293 cells transiently expressing FLAG-RSPO1furin-CD4TM-GFP; secondary APC-conjugated anti-IgG alone, no primary antibody
[2] = target: T1, recombinant human RSPO1 (R&D Systems) (human, UniProt Q2MKA7 21-263); experiment: ELISA on plate-coated recombinant human RSPO1, anti-human IgG Fc-HRP detection, 4-parameter fit, 3 runs
T1 construct: Bought protein
Experimental: High binding 96 well plates (Nalge Nunc International) were coated with […] recombinant human RSPO1 (R&D Systems) in coating buffer (1× PBS, pH 7.4) overnight at 2-8° C. The plates were washed 3-6 times after each step with 300 μl/well of 1× PBS, 0.05% Tween-20, pH 7.4. After coating, the plates were incubated with 250 μl/well of blocking buffer (1× PBS, 0.1% gelatin, 0.1% TWEEN-20, pH 7.4) for 60 minutes ±10 minutes at room temperature (19-25° C.). Plates were washed and incubated with 100 μl/well of first generation humanized anti-RSPO1 antibody h89M5-H2L2 and second generation humanized antibody h89M5-H8L5 for 120 minutes ±10 minutes at room temperature. First generation humanized anti-RSPO1 antibody h89M5-H2L2 was use as the reference standard and the positive control. The antibodies were prepared at an initial concentration of 2.5 μg/ml and diluted 3-fold serially, ranging from 2.5 μg/ml to […]. Each sample was tested in duplicate and the experiment was run 3 times. […] The binding of the antibodies to RSPO1 was measured by absorbance at 450 nm and 650 nm using an ELISA plate reader (Molecular Devices). The results were analyzed using a 4-parameter curve fit, and relative binding potency was determined by comparing EC₅₀ values of the reference to that of the samples.

Sequence of FLAG-RSPO1furin-CD4TM-GFP (human) (Q2MKA7 34-135): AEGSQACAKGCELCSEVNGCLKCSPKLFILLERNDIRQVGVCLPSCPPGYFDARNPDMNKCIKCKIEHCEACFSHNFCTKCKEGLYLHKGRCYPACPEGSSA
T1 sequence (Q2MKA7 21-263 limits assumed): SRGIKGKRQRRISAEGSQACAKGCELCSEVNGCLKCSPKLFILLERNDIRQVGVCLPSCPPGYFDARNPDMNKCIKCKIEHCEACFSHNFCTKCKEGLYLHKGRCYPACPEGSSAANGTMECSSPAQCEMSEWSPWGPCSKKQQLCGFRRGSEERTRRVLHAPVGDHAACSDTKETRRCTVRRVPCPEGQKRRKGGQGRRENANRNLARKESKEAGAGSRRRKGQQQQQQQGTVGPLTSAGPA

Row | MFI [1] | mean relative binding potency (EC50 against reference h89M5-H2L2) [2] [%] | Molecule
1 | 3.2 | – | Secondary Ab Control (antibody)
2 | – | 120 | second generation humanized anti-RSPO1 antibody h89M5-H8L5 (antibody, human IgG1, kappa, V domains shown, Humanized version of mouse antibody 89M5, with the same CDRs as h89M5-H2L2; also called h89R5-H8L5) VH: EVQLVQSGAEVKKPGESLRISCKGSGYSFTGYTMHWVRQMPGKGLEWMGGINPNNGGTTYNQNFKGHVTISADKSISTAYLQWSSLKASDTAMYYCARKEFSDGYYFFAYWGQGTLVTVSS VL: DIVMTQSPDSLAVSLGERATINCKASQDVIFAVAWYQQKPGQPPKLLIYWASTRHTGVPDRFSGSGSGTDFTLTISSLQAEDVAVYYCQQHYSTPWTFGGGTKVEIKR

— patent US20170247437A1 (ONCOMED PHARMACEUTICALS, published 2017)
